Changes are numbered by the printed parent chain.
Tests used:
Assay in all cases: EMSA
Details in all cases: EMSA: DIG gel shift kit (Roche) conditions, 0.04 ng DNA, native 6% PAGE in 0.5x TBE; SPR: HBS-EP running buffer, 25 °C, BIAcoreX, nonspecific 30-mer DNA in the …
[1] = target: T1, AmtR-MBP S55A S55A (Corynebacterium glutamicum ATCC13032) (UniProt H7C699)
T1 sequence: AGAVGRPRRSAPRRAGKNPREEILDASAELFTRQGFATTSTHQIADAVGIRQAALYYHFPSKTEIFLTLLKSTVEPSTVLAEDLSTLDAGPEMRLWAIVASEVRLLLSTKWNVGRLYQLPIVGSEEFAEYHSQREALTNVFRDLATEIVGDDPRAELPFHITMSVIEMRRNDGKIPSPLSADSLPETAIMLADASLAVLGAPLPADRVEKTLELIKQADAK

[2] = target: T2, AmtR-MBP T42A T42A (Corynebacterium glutamicum ATCC13032) (UniProt H7C699)
T2 sequence: T1 sequence with T41A, A54S

[3] = target: T3, AmtR-MBP Y57A Y57A (Corynebacterium glutamicum ATCC13032) (UniProt H7C699)
T3 sequence: T1 sequence with A54S, Y56A

[4] = target: T4, AmtR-MBP Y58A Y58A (Corynebacterium glutamicum ATCC13032) (UniProt H7C699)
T4 sequence: T1 sequence with A54S, Y57A

[5] = system: AmtR-MBP E30A (Corynebacterium glutamicum ATCC13032)
[6] = system: AmtR-MBP L71A (Corynebacterium glutamicum ATCC13032)
[7] = system: AmtR-MBP T33A (Corynebacterium glutamicum ATCC13032)

Substance | Kd [1] [µM] | binding [2] | binding [3] | binding [4] | Kd [5] [µM] | Kd [6] [µM] | Kd [7] [µM]
GCTGGGCTAGAAACCCGATAAGCGAGAACCACCTGTCGGATGTTGTCTGGCAGGTGGTTTTCTTTTGCCTGGGTACCACCAAAAAGCAGCTGTGATGCACTTAACAATTCATTAAATTACCTGTTAAACTATAGAAAATATCCAAAACCCTCCAAAACCTATTCTATAGATCTATTGAAATTAGTTTCTGTAGGTCTATAGTTAGAGCTGGTTCAAGGGGTGTCAATCCCAAAAGGCACTCCTTGAACTCATGAAAAAGCTTGACAAAACTTCAACGTCAAAGGAGGTCATCCACGC (double strand) [amtB promoter PCR fragment] | 71 | binds | binds more weakly | binds more weakly | – | – | –
amtB promoter PCR fragment | 71 | – | – | – | 10 | 20 | 2.2

Source: article PMC2723105, “DNA binding by Corynebacterium glutamicum TetR-type transcription regulator AmtR”
